Five molecules from US7449316B2, “UDP-galactose: β-D-galactose-R 4-α-D-galactosyltransferase, α4Gal-T1” (Glycozym APS, priority 2000, dated 2008) can be followed below.

One data set addresses T1, α4Gal-T1 (Homo sapiens, UniProt Q9NPC4).
T1 construct: The full coding constructs were assayed with 1% Triton X-100 homogenates of cells; made in house; host or cells: insect cells (High Five), baculovirus vector pVL1393
T1 sequence (Q9NPC4 1-353): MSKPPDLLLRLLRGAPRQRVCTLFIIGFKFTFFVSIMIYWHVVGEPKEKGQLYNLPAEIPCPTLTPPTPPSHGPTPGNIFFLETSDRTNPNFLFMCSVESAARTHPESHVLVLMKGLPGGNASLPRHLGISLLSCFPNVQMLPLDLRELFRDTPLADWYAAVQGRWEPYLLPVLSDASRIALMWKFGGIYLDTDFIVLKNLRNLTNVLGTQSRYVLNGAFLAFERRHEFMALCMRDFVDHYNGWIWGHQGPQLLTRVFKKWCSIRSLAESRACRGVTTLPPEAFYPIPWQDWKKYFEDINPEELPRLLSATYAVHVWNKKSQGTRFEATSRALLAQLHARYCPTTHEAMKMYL
As to the kind of experiment: Saccharide acceptor substrates tested with α4Gal-T1. Format: biochemical. As to conditions: saccharide acceptors, α4Gal-T1 expressed in insect cells. Here is the method:
(§1) Full coding constructs were prepared by genomic PCR using primer pair HCRS131 (5′-[…]) (SEQ ID NO:7) and HCRS125 (5′-[…]) (SEQ ID NO:8) and genomic DNA from phenotyped individuals with phenotypes P1+ (#165) and p (#4) (see Table II for sequence). Three different full coding constructs were selected for expression: #67 (A109, T548, G903, G987), #45 (G109, T548, G903, A987), and p#5 (A109, A548, G903, G987). The products were cloned into BamHI and EcoRI sites of pBluescript KS+, and subsequently into the insect cell expression vector pVL1393 (Pharmingen), and sequenced in full. A truncated, secreted construct (amino acid residues 46-353) was prepared using primer pair HCRS124 (5′-[…]) (SEQ ID NO:9) and HCRS125 from a P1+ phenotype individual (#165), and the sequence confirmed as described above. The products were cloned into the expression vector pAcGP67A (Pharmingen). The variants of plasmids pVL-α4Gal-T1-full and pAcGP67-α4Gal-T1-sol were co-transfected with Baculo-Gold™ DNA (Pharmingen), and virus amplified as described previously (Bennett et al., 1996). Standard assays were performed in 50 μl reaction mixtures containing 25 mM Cacodylate (pH 6.5), 10 mM MnCl2, 0.25% Triton X-100, 100 μM UDP-[^14C]Gal (10,000 cpm/nmol) (Amersham), and the indicated concentrations of acceptor substrates (Sigma and Dextra Laboratories Ltd) (see Table I for structures). The full coding constructs were assayed with 1% Triton X-100 homogenates of cells twice washed in phosphate buffered saline or resuspended microsomal fractions.

Data set [1] can be described thus: P^k assay: galactosyltransferase activity with CDH, α4Gal-T1 constructs expressed in insect cells. Format: biochemical. Conditions: full coding constructs in insect (High Five) cells, microsomal fractions, 25 μg CDH, UDP-[14C]Gal, 4 hr, compared to uninfected cells or control construct. Here is the method:
(§2) FIG. 4 illustrates expression of full coding Expression of full coding α4Gal-T1 variants in High Five cells. Assays were performed with microsomal fractions, and controls included constructs encoding polypeptide GalNAc-T3 and -T4 (Bennett et al., 1998), as well as a β3GlcNAc-T (Amado et al., 1999). Autoradiography of high performance thin-layer chromatography of reaction products (4 hr) purified by SepPack C-18 columns. Panel A: P^k assay using 25 μg CDH as substrate. Plate was run in chloroform-methanol-water (60/35/8 v/v/v). […] Panel B: P1 assay using 20 μg PG as substrate. Plate was run in chloroform-methanol-water (60/40/10 v/v/v). No specific product was formed with UDP-Gal donor substrate, whereas the β3GlcNAc-T transferred GlcNAc into PG with UDP-GlcNAc.
as §1

A short description of data set [2]: P1 assay: α4Gal-T activity with paragloboside (PG) acceptor. Format: biochemical. Conditions: full coding constructs in insect cells, 20 μg PG, UDP-Gal donor. Here is the method: as §2
Full coding constructs were prepared by genomic PCR using primer pair HCRS131 (5′-[…]) (SEQ ID NO:7) and HCRS125 (5′-[…]) (SEQ ID NO:8) and genomic DNA from phenotyped individuals with phenotypes P1+ (#165) and p (#4) (see Table II for sequence). Three different full coding constructs were selected for expression: #67 (A109, T548, G903, G987), #45 (G109, T548, G903, A987), and p#5 (A109, A548, G903, G987). The products were cloned into BamHI and EcoRI sites of pBluescript KS+, and subsequently into the insect cell expression vector pVL1393 (Pharmingen), and sequenced in full. […]

Another data set deals with Namalwa cells. As to the kind of experiment: Cell surface P^k/CD77 antigen expression after transient transfection, FACS analysis. Format: cell-based, human. As to conditions: transient transfection of Namalwa cells, 48 hours, 1A4 monoclonal antibody. The method, then:
FIG. 7 illustrates cell surface expression of P^k/CD77 antigen in Namalwa cells after transient transfection of α4Gal-T1. Constructs p#5, #45, and #67, as well as empty pDR2 vector were electroporated in Namalwa cells and expression of P^k/CD77 antigen was tested after 48 hours. Cells were labeled with 1A4 monoclonal antibody and GAM-FITC (grey histograms) or with GAM-FITC alone (empty histograms) and analysed with a FACSCalibur flow cytometer.
The three full coding constructs #67, #45, and p#5, were cloned into pDR2 (Clontech, USA). Insert was excised from pBKs with BamHI/XhoI and inserted into the BamHI/SalI sites of pDR2. Transient transfection of 5×10^6 Namalwa cells with 20 μg cDNA was done by double-pulse electroporation using an Easy-cell ject+ (Eurogentec, France). Expression of CD77/P^k antigen was evaluated by FACS analysis on a FACSCalibur (Beckton-Dickinson, USA) using 1A4 monoclonal antibody (Wiels, 1997).
For orientation: In flow cytometry, cells or beads pass a laser one at a time.

Where a chain is given by its changes, count along the chain named.

Turning to `OC[C@H]1O[C@@H](O[C@H]2[C@H](O)[C@@H](O)[C@H](OCc3ccccc3)O[C@@H]2CO)[C@H](O)[C@@H](O)[C@H]1O` [benzyl β-lacto-side], the “acceptor activity over background” value at α4Gal-T1 was “no significant activity over background values”.
Still for that read-out and setting: to `N[C@H]1C(O)O[C@H](CO)[C@@H](O[C@@H]2O[C@H](CO)[C@H](O)[C@H](O)[C@H]2O)[C@@H]1O` (stereo partly drawn) [lactosamine] belongs “no significant activity over background values”.
Still for that read-out and setting: to `OC[C@H]1O[C@@H](O[C@H]2[C@H](O)[C@@H](O)C(O)O[C@@H]2CO)[C@H](O)[C@@H](O)[C@H]1O` (stereo partly drawn) [lactose] belongs “no significant activity over background values”.

B1: α4Gal-T1^37V: full coding human α4Gal-T1 variant, construct #45 (G109, T548, G903, A987), Val at residue 37 (protein, UniProt Q9NPC4 1-353, looked up)
chain: T1 sequence (Q9NPC4 1-353)
modifications: full-length
Turning to B1, the “galactosyltransferase (α4Gal-T) activity with CDH” value in data set [1] is given as “marked increase in galactosyltransferase activity”; in data set [1] (listed as #45), “resulted in α4Gal-T activity toward CDH”. Besides, in data set [2], the “α4Gal-T activity with neolacto-series (paragloboside) glycolipid acceptor (P1 synthase activity)” value is “neither α4Gal-T1^37M or α4Gal-T1^37V constructs conferred α4Gal-T activity”. For the same molecule, the “P^k/CD77 expression” value in the data set on Namalwa cells is reported as “clearly resulted in P^k/CD77 expression”.

B2: α4Gal-T1^183K: full coding α4Gal-T1 from p individuals, construct p#5 (A109, A548, G903, G987), Met183 to Lys (protein, UniProt Q9NPC4 1-353, looked up, variant M183K)
chain: T1 sequence (Q9NPC4 1-353) with M183K
modifications: full-length
notes: full coding α4Gal-T1 from p individuals, construct p#5 (A109, A548, G903, G987), Met183 to Lys
In the case of B2, the “galactosyltransferase (α4Gal-T) activity with CDH” value is reported as “no activity” in data set [1] and “no activity above background” in data set [1] (listed as #5).
